T1: α-fructosyl-valyl-histidyl-leucyl-threonyl-proryl-glutamic acid
T1 chain: VHLTPE

B1: NvFX (protein)
chain: MTTPRKETTVLIIGGGGTIGSSTALHLLRAGYTPSNITVLDTYPIPSAQSAGNDLNKIMGIRLRNKVDLQLSLEARDMWRNDALFRPFFHNTGRLDCESSAEGVEGLRREYQKLVEAGVGLEETHEWLDSEEAILEKAPLLQREEIEGWKAIWSEEGGWLAAAKAINAIGEELQRQGVRFGFGGAGSFKRPLFADDGTTCIGVETVDGTQYHADKVVLAAGAWSPALVDLEEQCCSKAWVYAHMQLTPEEAAVYKGCPVVYHGDVGFFFEPNENGVIKVCDEFPGFTRFKQHQPYGAPAPKPVSVPRSHAKHPTDTYPDASEESIKRAVSTFLPRFKDKPLFNRALCWCTDTADSALLICEHPRWKNFILATGDSGHSFKLLPIIGKHVVELVEGRLADDLAEAWRWRPGQGDARKSIRAAPAKDLADMPGWKHDQDSESR
B2: CFP-T7-H2 (protein)
chain: MTSNRADTRVIVVGGGGTIGSSTALHLVRSGYAPANITVLDTFEIPSAQSAGHDLNKIMGIALRNKVDLQMSLEARQMWKEDELFQPFFHNTGRMDCEHTPEGIEDLKKLYQALHDAGAGLEKTHAWLDNEDEILSKMPLLQRDQIQGWKAIWSQDGGWLAAAKAINAIGQFLKERGVKFGFGGAGSFKQPLFDDEGTTCIGVETADGTKYYADKVVLAAGAWSPTLVDLEDQCCSKAWVYAHIQLTPEEAAEYKGVPVVYNGEFGFFFEPDEFGVIKVCDEFPGFSRFKEHQPYGAPSPKRISVPRSHAKHPTDTYPDASEVSIKKAIATFLPRFQDKELFNRALCWCTDTADAALLMCEHPKWKNFILATGDSGHSFKILPNVGKYVVELIEGRLPEEMAYQWRWRPGGDALKSRRAAPPKDLADMPGWKHDPKL
B3: EFP-T5 (protein)
chain: MAHSRASTKVVVVGGGGTIGSSTALHLIRSGYTPSNITVLDVYKTPSLQSAGHDLNKIMGIRLRNGPDLQLSLESLDMWQNDELFKPFFHQVGMIDCSSSKEGIENLRRKYQTLLDAGIGLEKTNVWLESEDEILAKAPNFTREQVKGWKGLFCTDGGWLAAAKAINAIGIFLQDKGVKFGFGDAGTFQQPLFAADGKTCIGLETTDGTKYFADKVVLAAGAWSPTLVDLEDQCVSKAWVFAHIQLTPKEADAYKNVPVVYDGEYGFFFEPDEYGVIKVCDEFPGFSRFKLHQPYGAASPKMISVPRSHAKHPTDTYPDASEVTIRKAIARFLPEFKDKELFNRTMCWCTDTADANLLICEHPKWKNFILATGDSGHSFKLLPNIGKYVVELLEGSLSQEMAGAWRWRPGGDALRSRRGAPAKDLAEMPGWKHDAHL
B4: EFP-T5-62D/63H/106K/110L/113K/355S (protein)
chain: MAHSRASTKVVVVGGGGTIGSSTALHLIRSGYTPSNITVLDVYKTPSLQSAGHDLNKIMGIDHRNGPDLQLSLESLDMWQNDELFKPFFHQVGMIDCSSSKEGIEKLRRLYQKLLDAGIGLEKTNVWLESEDEILAKAPNFTREQVKGWKGLFCTDGGWLAAAKAINAIGIFLQDKGVKFGFGDAGTFQQPLFAADGKTCIGLETTDGTKYFADKVVLAAGAWSPTLVDLEDQCVSKAWVFAHIQLTPKEADAYKNVPVVYDGEYGFFFEPDEYGVIKVCDEFPGFSRFKLHQPYGAASPKMISVPRSHAKHPTDTYPDASEVTIRKAIARFLPEFKDKELFNRTMCWCTDTADSNLLICEHPKWKNFILATGDSGHSFKLLPNIGKYVVELLEGSLSQEMAGAWRWRPGGDALRSRRGAPAKDLAEMPGWKHDAHL
B5: EFP-T5-R62D (protein)
chain: MAHSRASTKVVVVGGGGTIGSSTALHLIRSGYTPSNITVLDVYKTPSLQSAGHDLNKIMGIDLRNGPDLQLSLESLDMWQNDELFKPFFHQVGMIDCSSSKEGIENLRRKYQTLLDAGIGLEKTNVWLESEDEILAKAPNFTREQVKGWKGLFCTDGGWLAAAKAINAIGIFLQDKGVKFGFGDAGTFQQPLFAADGKTCIGLETTDGTKYFADKVVLAAGAWSPTLVDLEDQCVSKAWVFAHIQLTPKEADAYKNVPVVYDGEYGFFFEPDEYGVIKVCDEFPGFSRFKLHQPYGAASPKMISVPRSHAKHPTDTYPDASEVTIRKAIARFLPEFKDKELFNRTMCWCTDTADANLLICEHPKWKNFILATGDSGHSFKLLPNIGKYVVELLEGSLSQEMAGAWRWRPGGDALRSRRGAPAKDLAEMPGWKHDAHL

Target: T1, α-fructosyl-valyl-histidyl-leucyl-threon …

Row | Protein | Specific activity (U/mg), 1 mM αF6P, purified enzyme [U/mg] | αF6P oxidation activity (crude enzyme; αFVH oxidation activity = 100) (relative (αFVH = 100)) | αF6P/αFV | αF6P/αFVH
1 | B1 | 0 | – | – | –
2 | B2 | – | 0.0735 | 0.000536 | 0.000735
3 | B3 | 0 | – | – | –
4 | B4 | 1.12 | – | – | –
5 | B5 | 0.0043 | – | – | –

From patent US20160274129
